Values of other authors in patent US20230416704A1, “LACTONASE AND STABILIZED MUTANTS THEREOF FOR TREATING FUNGAL INFECTIONS IN PLANTS” (MIGAL GALILEE RESEARCH INSTITUTE LTD., priority 2020, published 2023).

Conditions: as shown in WO 2020/255131; cited from earlier work

B1: H172Y: M. tuberculosis phosphotriesterase-like lactonase (PPH) with H172 substituted by tyrosine (protein)
chain: MISEFPELNTARGPIDTADLGVTLMHEHVFIMTTEIAQNYPEAWGDEDKRVAGAIARLGELKARGVDTIVDLTVIGLGRYIPRIARVAAATELNIVVATGLYTYNDVPFYFHYLGPGAQLDGPEIMTDMFVRDIEHGIADTGIKAGILKCATDEPGLTPGVERVLRAVAQAYKRTGAPISTHTHAGLRRGLDQQRIFAEEGVDLSRVVIGHCGDSTDVGYLEELIAAGSYLGMDRFGVDVISPFQDRVNIVARMCERGHADKMVLSHDACCYFDALPEELVPVAMPNWHYLHIHNDVIPALKQHGVTDEQLHTMLVDNPRRIFERQGGYQ
- temperature of 50% residual activity: about 65 °C
